Where a chain is given by its changes, count along the chain named.
Key:
Experiment in all cases: fluorescence anisotropy
MBP-AtTZF1 RR-TZF C101R = molecular target: T1, MBP-AtTZF1 RR-TZF C101R (Arabidopsis thaliana, UniProt O82307 86-195, C101R)
T1 sequence: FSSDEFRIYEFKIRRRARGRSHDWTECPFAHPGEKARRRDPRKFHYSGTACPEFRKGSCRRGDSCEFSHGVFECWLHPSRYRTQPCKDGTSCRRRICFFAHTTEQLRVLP

[1] = molecular target: T2, MBP-AtTZF1 RR-TZF C136R/C171R (Arabidopsis thaliana, UniProt O82307 86-195, C136R;C171R)
T2 sequence: T1 sequence with R16C, C51R, C86R

[2] = molecular target: T3, MBP-AtTZF1 RR-TZF C101R/C136R/C171R (Arabidopsis thaliana, UniProt O82307 86-195, C101R;C136R;C171R)
T3 sequence: T1 sequence with C51R, C86R

[3] = molecular target: T4, MBP-AtTZF1 RR;MBP-AtTZF1 TZF (Arabidopsis thaliana;Arabidopsis …, UniProt O82307;O82307 86-128;129-195, |)
T4 sequence 1: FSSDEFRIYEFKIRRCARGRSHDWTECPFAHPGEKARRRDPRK
T4 sequence 2: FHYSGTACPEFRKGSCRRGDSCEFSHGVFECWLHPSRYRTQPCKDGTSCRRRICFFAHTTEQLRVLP

Binder	Kd (MBP-AtTZF1 RR-TZF C101R)	Kd [1]	Kd [2]	Kd [3]
UUUUUUUUUUUUUUUUUUU (ssRNA) [Fl-polyU]	0.81 ± 0.04 µM	1.61 ± 0.04 µM	3.11 ± 0.08 µM	4.4 ± 0.1 µM
UAUUUAUUAUUUAUUUAUU (ssRNA) [Fl-ARE19]		1.54 ± 0.05 µM		0.61 ± 0.04 µM

From article PMC4026020
